Laboratory results taken from patent US20250032577A1.

Columns and labels:
[1] = target: Gq proteins
[2] = target: Gq proteins; remark: listed apart in the source
[3] = target: Gq proteins; remark: listed apart in the source

Substance: Turtle Opn5 (receptor)
- light-induced increase in Ca^2+ signal (Calbryte 630 AM) in HEK 293T cells [1]: 3 ΔF/F

Substance: opto-a1AR (receptor)
- Ca^2+ signal increase in HEK 293T cells [2]: 0.5 ΔF/F

Substance: human OPN4 (from UniProt Q9UHM6) (receptor)
- Ca^2+ signal increase in HEK 293T cells [2]: 1 ΔF/F

Substance: Chicken Opn5 (receptor)
- light-induced increase in Ca^2+ signal (Calbryte 630 AM) in HEK 293T cells [1]: 3 ΔF/F
- Ca^2+ transients (Calbryte 630 AM) in primary mouse astrocytes [3]: 8 ΔF/F
